{
  "source": "patent US8221773B2",
  "about": "“Hydrogels and uses thereof” (University of Delaware, priority 2004, dated 2012)",
  "key": {"[1]": {"assay": "CD spectroscopy of peptide folding (random coil vs β-sheet)", "format": "physicochemical", "experimental": "Time-dependent circular dichroism (CD) studies support a hydrogelation mechanism consistent with intramolecular hairpin formation followed by self-assembly. […] At temperatures >25° C. the folding and self-assembly of MAX1 occurs on the order of seconds. […] This behavior is consistent across all spectro- and microscopic methods used to interrogate MAX1. For example, at micromolar concentrations used for the CD studies shown in FIGS. 4A and 4B, self-assembly takes hours at 20° C. At millimolar concentrations, such as those used in the rheological studies described below, self-assembly leading to hydrogel takes minutes at 20° C.\nThe reversibility of the folding and self-assembly process was investigated by measuring θ216 as a function of pH and time as shown in FIG. 4C. CD of a stirred solution of MAX1 at pH 5.5 indicates random coil conformation. Adjusting the pH to 9.0 by the addition of NaOH results in β-sheet formation as expected. However, subsequent adjustment of the pH to 6.0 results in complete loss of sheet signal and full recovery of random coil signal. […] Again, this reversible behavior is not observed in hydrogels formed from amyloid/prion-like fibrils.\nIn some embodiments of the invention, various functionalities (e.g., cell adhesion epitopes, receptor agonists, receptor antagonists, ligands, small molecules, etc) may be incorporated into the hairpin hydrogel scaffold. One way to accomplish this would be to functionalize one or more amino acid side chains of the peptide. […] In some embodiments, the moieties to be incorporated at a particular side chain may be much larger (e.g. RGD-based motifs) and may contain charged residues. MAX5 (VKVKVKVKV^DPPTKVKEKVKV-NH2) was prepared to investigate the possibility of incorporating a charged residue on the hydrophobic face of MAX1. The sequence contains a glutamic acid residue at position 16 which is negatively charged at basic pH where MAX1 normally folds and assembles. […] However, alterations to the hydrophilic face of MAX1 are well tolerated. Sequences in which one or two lysine residues are replaced with other residues such as cysteine, serine, and glutamic acid are capable of folding and self-assembly into rigid hydrogels (data not shown).\nThe peptides described above contain identical turn sequences, namely (-V^DPPT-). This sequence has a strong propensity to form a type II′ turn and therefore helps to drive intramolecular folding. Since intramolecular folding must occur prior to self-assembly, alterations to this turn sequence that inhibit turn structure formation can be used to modulate intramolecular folding and self-assembly leading to hydrogelation. MAX9 was prepared to probe the importance of the turn region (VKVKVKVKV^LPPTKVKVKVKV-NH2). […]"}, "[2]": {"assay": "Temperature dependent CD: temperature at which folding and self-assembly is triggered (Tgel)", "format": "physicochemical", "conditions": "pH 9 and low (20 mM) salt", "text": "At low temperature MAX1 is unfolded (and unassembled). At high temperature MAX1 folds into beta-sheet (and consequently self-assembles into a hydrogel). […] The relative hydrophobicity is MAX1>MAX2>MAX3 due to the isostructural but less hydrophobic substitutions of threonine for valine at the underlined positions. The most hydrophobic folds at the lowest temperature while the least hydrophobic folds at the highest temperature. This is a direct manifestations of the molecular parameter manipulations described in FIG. 2. Also shown are the calculated free energy of transfer of each corresponding unfolded peptide having an overall +8 charge state from octanol into water at 25° C. MAX1, the most hydrophobic has the highest free energy of transfer equal to 7.60 kcal/mol. MAX2 has a calculated transfer free energy of 6.88 kcal/mol, while the least hydrophobic MAX3 has the lowest energy of transfer of 6.45 kcal/mol.\nThis allows the characteristics of the hydrogels of the invention to be varied by adjusting these parameters. […] It is well known that water is better able to solvate hydrophobic groups at low temperatures. This phenomenon has been used to describe the cold denaturation of proteins where some proteins unfold at low temperatures, exposing their hydrophobic interiors to aqueous solvent. A 150 μM aqueous solution of MAX1 unfolds when cooled below room temperature. The CD spectrum at 5° C. is consistent with random coil conformation, FIG. 9A. However, warming the solution to 40° C. results in a spectra consistent with β-sheet structure. […] In fact, previous studies involving the pH induced folding and self-assembly of MAX1 were performed at 20° C. At this temperature, folding and self-assembly are slow enough to be conveniently monitored. At higher temperatures, folding and self: assembly leading to hydrogelation is fast (instantaneous to seconds depending on concentration). If the formation of hydrophobic interactions affects the folding and self-assembly process, then altering the hydrophobic content of MAX1 should affect the temperature at which folding is triggered. […] MAX2 is identical to MAX1 except that one valine residue has been replaced with the isostructural, but less hydrophobic residue, threonine. In MAX3, two valines are replaced with threonine residues. The resulting peptides vary in their hydrophobicity as evident by comparing calculated free energies of transfer from octanol into water, FIG. 9. […] Thus, the formation of hydrophobic contacts influences folding and self-assembly. […] Thus, the characteristics of the hydrogels of the invention can be varied by adjusting the amino acid residues of the peptides used to form the hydrogels to increase or decrease the hydrophobicity of the amino acid residues used.\nThere are reports of large polymers that are thermally responsive. The present invention provides the first system that employs temperature triggered folding to induce self-assembly. […] Heating the solution to 80° C. results in a spectra consistent with β-sheet structure. […] The temperatures used in both CD and rheology bracket the temperature (Tgel=60° C., FIG. 9) at which folding and consequent self-assembly is triggered. […] For example, free flowing peptide solutions could be prepared at room temperature and administered in vivo where the temperature of the body could induce gelation. […]"}},
  "note": "Where no end group is shown, it is not given here.",
  "data": [
    {"sequence": "VKVKVKVK V^DPPT KVKVKVKV-NH2 (not fully specified (C-terminus)) [MAX1]", "values": [
      {"measurement": "time to plateau of β-sheet formation (ellipticity at 218 nm)", "setting": "[1]; 2.0 wt %, pH 7.4, 150 mM KF, 37° C", "result": 15, "unit": "min"},
      {"measurement": "reversibility of folding and self-assembly with pH", "setting": "[1]; stirred 300 μM solution, pH 5.5 to 9.0 to 6.0, 20° C", "result": "reversible"},
      {"measurement": "transition temperature from random coil to folded β-sheet structure", "setting": "[2]", "result": "around 25 °C"}
    ]}
  ]
}
